Results from US20150258192A1, “COMPOSITIONS AND METHODS FOR PREVENTING OR TREATING CHRONIC LUNG ALLOGRAFT DYSFUNCTION (CLAD) AND IDIOPATHIC PULMONARY FIBROSIS (IPF)” (priority 2014, published 2015).
No end group written: not given here.

How the values were obtained:
Assay in all cases: Kinase Profiling Assay
Format in all cases: biochemical
Details in all cases: peptide 100 μM
[1] = biological target: Abl(T315I)(h) (Homo sapiens, UniProt P00519, T315I)
Procedure, shortened: (§1)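 Radiometric filter-binding format: cationic substrate takes up labeled phosphate from ATP unless the inhibitor peptide blocks the kinase. Substrate bound to an anionic filter, scintillation-counted, normalized to 100% activity control. Duplicates; part of a 266-kinase selectivity panel for MK2 peptides.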

[2] = biological target: CDK2/cyclinE(h) (Homo sapiens, UniProt P24941)
Procedure, shortened: as §1

[3] = biological target: T1, EphA8(h) (Homo sapiens, UniProt P29322)
T1 sequence (P29322 28-1005): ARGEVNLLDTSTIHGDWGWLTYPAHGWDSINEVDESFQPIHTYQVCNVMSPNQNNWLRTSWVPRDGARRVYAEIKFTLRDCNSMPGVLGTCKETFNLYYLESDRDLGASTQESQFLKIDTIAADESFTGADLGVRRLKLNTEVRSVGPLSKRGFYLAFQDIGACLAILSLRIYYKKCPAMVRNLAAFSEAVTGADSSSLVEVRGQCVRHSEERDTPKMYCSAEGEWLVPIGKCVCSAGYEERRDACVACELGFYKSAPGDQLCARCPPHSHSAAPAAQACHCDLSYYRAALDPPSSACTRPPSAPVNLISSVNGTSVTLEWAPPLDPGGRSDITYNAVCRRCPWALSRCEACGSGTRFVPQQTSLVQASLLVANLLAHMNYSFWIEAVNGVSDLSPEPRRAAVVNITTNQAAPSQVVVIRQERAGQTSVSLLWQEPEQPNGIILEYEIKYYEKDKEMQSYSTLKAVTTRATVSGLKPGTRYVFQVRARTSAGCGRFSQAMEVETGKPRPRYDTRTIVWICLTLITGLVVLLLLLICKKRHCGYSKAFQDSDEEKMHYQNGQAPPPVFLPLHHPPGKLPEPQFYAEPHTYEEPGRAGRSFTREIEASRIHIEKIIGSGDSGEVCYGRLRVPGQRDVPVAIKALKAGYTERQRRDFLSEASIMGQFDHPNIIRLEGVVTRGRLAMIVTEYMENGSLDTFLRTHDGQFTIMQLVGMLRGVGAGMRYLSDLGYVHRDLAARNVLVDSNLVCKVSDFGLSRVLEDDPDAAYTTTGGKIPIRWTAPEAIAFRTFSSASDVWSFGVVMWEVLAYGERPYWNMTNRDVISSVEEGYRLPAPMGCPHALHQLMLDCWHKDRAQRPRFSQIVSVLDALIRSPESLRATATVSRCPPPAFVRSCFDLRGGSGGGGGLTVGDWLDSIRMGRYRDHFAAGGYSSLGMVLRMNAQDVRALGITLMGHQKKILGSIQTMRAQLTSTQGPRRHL
Procedure, shortened: as §1

[4] = biological target: T2, GSK3α(h) (Homo sapiens, UniProt P49840)
T2 construct: purchased Millipore
T2 sequence (P49840 whole entry): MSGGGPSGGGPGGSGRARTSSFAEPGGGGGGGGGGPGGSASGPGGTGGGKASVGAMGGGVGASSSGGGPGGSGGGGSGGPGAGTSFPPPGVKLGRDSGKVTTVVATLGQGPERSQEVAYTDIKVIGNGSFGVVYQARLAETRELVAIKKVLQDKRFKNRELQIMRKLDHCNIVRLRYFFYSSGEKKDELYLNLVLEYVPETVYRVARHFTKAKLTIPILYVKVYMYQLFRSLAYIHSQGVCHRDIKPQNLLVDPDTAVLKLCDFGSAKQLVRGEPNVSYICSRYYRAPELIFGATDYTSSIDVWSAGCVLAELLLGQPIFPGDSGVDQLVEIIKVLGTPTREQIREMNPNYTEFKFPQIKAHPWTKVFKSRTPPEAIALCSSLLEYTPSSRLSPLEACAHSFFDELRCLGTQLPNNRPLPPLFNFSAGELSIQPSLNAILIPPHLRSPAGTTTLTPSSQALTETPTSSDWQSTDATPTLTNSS
Procedure, shortened: as §1

[5] = biological target: T3, IKKβ(h) (Homo sapiens, UniProt O14920)
T3 construct: purchased Millipore
T3 sequence (O14920 1-756): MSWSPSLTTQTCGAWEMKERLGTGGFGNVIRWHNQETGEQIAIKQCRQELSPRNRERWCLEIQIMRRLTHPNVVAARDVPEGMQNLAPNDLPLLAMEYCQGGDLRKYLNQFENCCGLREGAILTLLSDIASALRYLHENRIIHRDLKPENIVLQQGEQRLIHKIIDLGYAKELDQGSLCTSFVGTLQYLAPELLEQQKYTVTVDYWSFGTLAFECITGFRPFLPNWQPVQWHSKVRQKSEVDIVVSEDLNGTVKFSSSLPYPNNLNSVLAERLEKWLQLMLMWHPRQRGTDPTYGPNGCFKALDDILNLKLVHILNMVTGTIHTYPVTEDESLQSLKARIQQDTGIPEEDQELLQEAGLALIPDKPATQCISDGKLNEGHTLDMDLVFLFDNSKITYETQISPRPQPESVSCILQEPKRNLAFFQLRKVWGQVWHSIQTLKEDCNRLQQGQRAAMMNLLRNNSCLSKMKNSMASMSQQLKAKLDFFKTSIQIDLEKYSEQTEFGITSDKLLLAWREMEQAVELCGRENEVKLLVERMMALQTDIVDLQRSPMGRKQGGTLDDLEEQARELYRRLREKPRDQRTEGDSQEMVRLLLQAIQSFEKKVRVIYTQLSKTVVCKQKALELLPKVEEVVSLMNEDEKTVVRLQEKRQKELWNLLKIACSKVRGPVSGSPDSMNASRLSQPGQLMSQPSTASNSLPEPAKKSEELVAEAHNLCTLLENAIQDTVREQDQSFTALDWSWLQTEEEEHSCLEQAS
Procedure, shortened: as §1

[6] = biological target: T4, TSSK1(h) (Homo sapiens, UniProt Q9BXA7)
T4 sequence (Q9BXA7 1-367): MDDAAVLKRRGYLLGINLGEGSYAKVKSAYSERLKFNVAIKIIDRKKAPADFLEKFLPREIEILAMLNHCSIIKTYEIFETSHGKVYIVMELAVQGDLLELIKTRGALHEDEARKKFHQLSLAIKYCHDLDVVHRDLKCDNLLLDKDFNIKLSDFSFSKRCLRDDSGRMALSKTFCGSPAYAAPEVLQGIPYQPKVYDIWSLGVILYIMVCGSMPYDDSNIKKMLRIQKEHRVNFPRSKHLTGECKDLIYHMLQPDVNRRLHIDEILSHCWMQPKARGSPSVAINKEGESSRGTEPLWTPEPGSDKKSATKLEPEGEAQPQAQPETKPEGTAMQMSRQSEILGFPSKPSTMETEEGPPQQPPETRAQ
Procedure, shortened: as §1

Sequence	% activity [1] [%]	% activity [2] [%]	% activity [3] [%]	% activity [4] [%]	% activity [5] [%]	% activity [6] [%]
FAKLAARLYRKALARQLGVAA [MMI-0300]	97	94	93	157	84	79
HRRIKAWLKKIKALARQLGVAA (Mammal) [MMI-0500]	16	19	337	175	71	46
KAFAKLAARLYRKALARQLGVAA [MMI-0400]		83	146	164	84	79
YARAAARQARAKALARQLGVAA [MMI-0100]	98		181			99
YARAAARQARAKALNRQLGVA (Mammal) [MMI-0200]	108		133			98
